Data as given in FireProtDB (doi:10.1021/bi049320b).

B1: Barstar, P11540 (parent)
chain: MKKAVINGEQIRSISDLHQTLKKELALPEYYGENLDALWDCLTGWVEYPLVLEWRQFEQSKQLTENGAESVLQVFREAKAEGCDITIILS

Variants of: B1
Settings: Bacillus amyloliquefaciens, pH 8, 25 °C, Urea, Fluorescence, Tris-HCl 30 mM, structure 1BTA, whole UniProt chain shown

In the case of K22A, the “ddG of mutation (higher = less stable)” value (KCl 0.5 M) is reported as 3.35 kJ/mol, the denaturant m value (KCl 0.5 M) is reported as 1.1 kcal/mol/M and the unfolding free energy (KCl 0.5 M) is reported as 20.9 kJ/mol. The “ddG of mutation (higher = less stable)” value (KCl 1 M) was 3.35 kJ/mol, the denaturant m value (KCl 1 M) was 1.11 kcal/mol/M and the unfolding free energy (KCl 1 M) was 25.5 kJ/mol. For the same variant, the “ddG of mutation (higher = less stable)” value was 5.86 kJ/mol, the denaturant m value was 1.02 kcal/mol/M and the unfolding free energy was 14.2 kJ/mol.

With K22Q the “ddG of mutation (higher = less stable)” value (KCl 0.5 M) was 5.02 kJ/mol, the denaturant m value (KCl 0.5 M) was 1.18 kcal/mol/M and the unfolding free energy (KCl 0.5 M) was 19.2 kJ/mol. The “ddG of mutation (higher = less stable)” value (KCl 1 M) was 5.02 kJ/mol, the denaturant m value (KCl 1 M) was 1.12 kcal/mol/M and the unfolding free energy (KCl 1 M) was 23.8 kJ/mol. The “ddG of mutation (higher = less stable)” value was 2.93 kJ/mol, the denaturant m value was 1.32 kcal/mol/M and the unfolding free energy was 17.2 kJ/mol.

With K23Q the “ddG of mutation (higher = less stable)” value (KCl 0.5 M) was 4.6 kJ/mol, the denaturant m value (KCl 0.5 M) was 1.12 kcal/mol/M and the unfolding free energy (KCl 0.5 M) was 19.7 kJ/mol. The “ddG of mutation (higher = less stable)” value (KCl 1.0 M) was 4.6 kJ/mol, the denaturant m value (KCl 1.0 M) was 1.14 kcal/mol/M and the unfolding free energy (KCl 1.0 M) was 24.3 kJ/mol. The “ddG of mutation (higher = less stable)” value was 2.09 kJ/mol, the denaturant m value was 1.22 kcal/mol/M and the unfolding free energy was 18 kJ/mol.

For E58K, the “ddG of mutation (higher = less stable)” value (KCl 0.5 M) was 3.77 kJ/mol, the denaturant m value (KCl 0.5 M) was 1.14 kcal/mol/M and the unfolding free energy (KCl 0.5 M) was 20.5 kJ/mol. The “ddG of mutation (higher = less stable)” value (KCl 1.0 M) was 3.77 kJ/mol, the denaturant m value (KCl 1.0 M) was 1.16 kcal/mol/M and the unfolding free energy (KCl 1.0 M) was 25.1 kJ/mol. The “ddG of mutation (higher = less stable)” value was 1.67 kJ/mol, the denaturant m value was 1.25 kcal/mol/M and the unfolding free energy was 18.4 kJ/mol.

With K61E the “ddG of mutation (higher = less stable)” value (KCl 0.5 M) was 5.44 kJ/mol, the denaturant m value (KCl 0.5 M) was 1.19 kcal/mol/M and the unfolding free energy (KCl 0.5 M) was 18.8 kJ/mol. The “ddG of mutation (higher = less stable)” value (KCl 1.0 M) was 5.86 kJ/mol, the denaturant m value (KCl 1.0 M) was 1.13 kcal/mol/M and the unfolding free energy (KCl 1.0 M) was 23 kJ/mol. The “ddG of mutation (higher = less stable)” value was 2.51 kJ/mol, the denaturant m value was 1.44 kcal/mol/M and the unfolding free energy was 17.6 kJ/mol.

With K61L the “ddG of mutation (higher = less stable)” value (KCl 0.5 M) was -1.67 kJ/mol, the denaturant m value (KCl 0.5 M) was 1.17 kcal/mol/M and the unfolding free energy (KCl 0.5 M) was 25.9 kJ/mol. For the same variant, the “ddG of mutation (higher = less stable)” value (KCl 1.0 M) was -1.67 kJ/mol, the denaturant m value (KCl 1.0 M) was 1.16 kcal/mol/M and the unfolding free energy (KCl 1.0 M) was 30.5 kJ/mol. For the same variant, the “ddG of mutation (higher = less stable)” value was -4.18 kJ/mol, the denaturant m value was 1.3 kcal/mol/M and the unfolding free energy was 24.3 kJ/mol.

In the case of R76L, the “ddG of mutation (higher = less stable)” value (KCl 0.5 M) is reported as -2.93 kJ/mol, the denaturant m value (KCl 0.5 M) is reported as 1.13 kcal/mol/M and the unfolding free energy (KCl 0.5 M) is reported as 27.2 kJ/mol. The “ddG of mutation (higher = less stable)” value (KCl 1.0 M) was -2.93 kJ/mol, the denaturant m value (KCl 1.0 M) was 1.15 kcal/mol/M and the unfolding free energy (KCl 1.0 M) was 31.8 kJ/mol. For the same variant, the “ddG of mutation (higher = less stable)” value was -2.93 kJ/mol, the denaturant m value was 1.13 kcal/mol/M and the unfolding free energy was 23 kJ/mol.

In the case of K79A, the “ddG of mutation (higher = less stable)” value (KCl 0.5 M) is reported as -0.837 kJ/mol, the denaturant m value (KCl 0.5 M) is reported as 1.18 kcal/mol/M and the unfolding free energy (KCl 0.5 M) is reported as 25.1 kJ/mol. For the same variant, the “ddG of mutation (higher = less stable)” value (KCl 1 M) was -0.418 kJ/mol, the denaturant m value (KCl 1 M) was 1.16 kcal/mol/M and the unfolding free energy (KCl 1 M) was 29.3 kJ/mol.

In the case of K79Q, the “ddG of mutation (higher = less stable)” value (KCl 0.5 M) is reported as -1.26 kJ/mol, the denaturant m value (KCl 0.5 M) is reported as 1.14 kcal/mol/M and the unfolding free energy (KCl 0.5 M) is reported as 25.5 kJ/mol. The “ddG of mutation (higher = less stable)” value (KCl 1 M) was -1.26 kJ/mol, the denaturant m value (KCl 1 M) was 1.14 kcal/mol/M and the unfolding free energy (KCl 1 M) was 30.1 kJ/mol. The “ddG of mutation (higher = less stable)” value was -1.67 kJ/mol, the denaturant m value was 1.14 kcal/mol/M and the unfolding free energy was 21.8 kJ/mol.

With R76Q the “ddG of mutation (higher = less stable)” value (KCl 0.5M) was 1.67 kJ/mol, the denaturant m value (KCl 0.5M) was 1.15 kcal/mol/M and the unfolding free energy (KCl 0.5M) was 22.6 kJ/mol. For the same variant, the “ddG of mutation (higher = less stable)” value (KCl 1 M) was 1.67 kJ/mol, the denaturant m value (KCl 1 M) was 1.17 kcal/mol/M and the unfolding free energy (KCl 1 M) was 27.2 kJ/mol.
